Target: human complement protein C3, P01024
Sequence (P01024 whole entry, looked up): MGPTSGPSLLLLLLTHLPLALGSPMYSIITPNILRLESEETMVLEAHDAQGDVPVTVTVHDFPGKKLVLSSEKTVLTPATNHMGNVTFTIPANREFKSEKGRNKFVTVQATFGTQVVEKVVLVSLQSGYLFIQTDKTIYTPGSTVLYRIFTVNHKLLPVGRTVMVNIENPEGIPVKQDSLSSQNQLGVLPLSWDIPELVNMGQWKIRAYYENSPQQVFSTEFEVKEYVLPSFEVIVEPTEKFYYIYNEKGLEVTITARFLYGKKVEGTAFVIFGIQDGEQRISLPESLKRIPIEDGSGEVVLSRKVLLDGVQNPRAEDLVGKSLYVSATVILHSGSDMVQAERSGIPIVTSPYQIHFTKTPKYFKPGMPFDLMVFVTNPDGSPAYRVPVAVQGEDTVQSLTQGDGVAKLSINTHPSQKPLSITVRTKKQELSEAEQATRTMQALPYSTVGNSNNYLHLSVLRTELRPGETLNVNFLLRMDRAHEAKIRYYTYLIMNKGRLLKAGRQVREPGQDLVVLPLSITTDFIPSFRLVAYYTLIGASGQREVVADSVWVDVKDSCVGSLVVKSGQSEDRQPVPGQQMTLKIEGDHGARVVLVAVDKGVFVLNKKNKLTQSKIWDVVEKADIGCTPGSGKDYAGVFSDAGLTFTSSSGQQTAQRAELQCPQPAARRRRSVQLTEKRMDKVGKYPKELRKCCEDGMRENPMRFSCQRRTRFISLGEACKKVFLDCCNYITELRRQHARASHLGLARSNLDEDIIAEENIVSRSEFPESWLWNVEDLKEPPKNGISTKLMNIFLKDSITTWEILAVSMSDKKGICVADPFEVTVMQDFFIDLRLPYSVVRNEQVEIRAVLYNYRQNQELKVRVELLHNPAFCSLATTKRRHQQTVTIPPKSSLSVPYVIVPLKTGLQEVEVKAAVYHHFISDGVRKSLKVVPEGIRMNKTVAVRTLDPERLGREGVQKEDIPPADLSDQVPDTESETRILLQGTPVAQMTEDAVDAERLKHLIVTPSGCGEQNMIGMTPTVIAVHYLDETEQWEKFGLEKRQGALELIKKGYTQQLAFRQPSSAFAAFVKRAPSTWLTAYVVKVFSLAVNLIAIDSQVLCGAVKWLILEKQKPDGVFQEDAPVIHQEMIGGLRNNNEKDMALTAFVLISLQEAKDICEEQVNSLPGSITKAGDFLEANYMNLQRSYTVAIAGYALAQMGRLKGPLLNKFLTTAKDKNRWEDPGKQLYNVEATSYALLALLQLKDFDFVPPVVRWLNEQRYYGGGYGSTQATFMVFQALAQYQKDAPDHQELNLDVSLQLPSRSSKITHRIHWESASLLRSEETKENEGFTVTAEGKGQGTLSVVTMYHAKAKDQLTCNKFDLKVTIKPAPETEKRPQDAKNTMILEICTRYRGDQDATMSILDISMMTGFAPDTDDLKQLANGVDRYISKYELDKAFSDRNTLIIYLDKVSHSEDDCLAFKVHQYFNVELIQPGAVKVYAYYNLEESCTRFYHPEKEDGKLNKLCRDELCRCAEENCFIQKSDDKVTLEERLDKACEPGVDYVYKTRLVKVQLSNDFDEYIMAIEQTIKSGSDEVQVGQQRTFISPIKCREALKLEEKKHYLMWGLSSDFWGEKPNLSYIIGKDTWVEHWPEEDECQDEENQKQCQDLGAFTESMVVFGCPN

B1: His-tagged CppA protein (recombinant C3-degrading proteinase of Streptococcus pneumoniae encoded by ORF3 / cppA) (protein)
chain: MNVNQIVRIIPTLKANNRKLNETFYIETLGMKALLEESAFLSLGDQTGLEKLVLEEAPSMRTRKVEGRKKLARLIVKVENPLEIEGILSKTDSIHRLYKGQNGYAFEIFSPEDDLILIHAEDDIASLVEVGEKPEFQTDLASISLSKFEISMELHLPTDIESFLESSEIGASLDFIPAQGQDLTVDNTVTWDLSMLKFLVNELDIASLRQKFESTEYFIPKSEKFFLGKDRNNVELWFEEV
**Q.** With B1 as the protein, how does the “C3 degradation (4 hrs at 37 C in PBS; reducing SDS-PAGE and Western Blot with polyclonal anti-C3)” value read?
**A.** the protein degraded human C3 protein. Both α and β chains of C3 molecules were susceptible to degradation

**Q.** And the “C3 degradation (4 hrs at 37 C in PBS; reducing SDS-PAGE and Western immunoblotting with polyclonal anti-C3)” value?
**A.** the samples that contained the expressed protein degraded C3 molecules ... the α chain was almost completely degraded while the β chain was partially degraded in the ORF3 samples
